Earlier results, collected in patent EP0259891B1, “[Leu 13] motilin, DNAs coding for same and methods for producing same” (KYOWA HAKKO KOGYO CO., LTD., priority 1986, dated 1995).

Settings: 13th amino acid Met oxidised; M. Fujino et al., Chem. Pharm. Bull., 26, 101 (1978)

motilin: physiologically active peptide occurring in the mammalian blood, composed of 22 amino acid residues, 13th amino acid Met
motilin activity after oxidation of Met to the sulfoxide form: decreased motilin activity
